Assay: yeast display, Sf9 membrane polyspecificity reagent, FACS + sequencing; frameworks hold sequencing errors
How it was run: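 Galactose induction of a Saccharomyces cerevisiae BJ5465 synthetic nanobody display library ran 36–48 hours. The cells were then stained for 1 hour at 4 °C with 10% biotinylated, detergent-solubilized Sf9 membrane reagent, pulled down on streptavidin microbeads and FACS-sorted into low and high (top ~1%) gates on expression and reagent-binding fluorescence. Labels for polyreactivity follow the gate of origin.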

Sequence: QVQLVESGGGLVQAGGSLRLSCAASGRTSIYNTMGWYRQAPGKERELVAAINPSGSTNYADSVKGRFTISRDNAKNTVYLQMNSLKPEDTAVYYCAAVVKWWGQSRYDYWGQGTQVTVSS
- polyreactivity (PSR sort gate): high polyreactivity

Sequence: QVQLVESGGGLVQAGGSLRLSCAASGFTFYSYAMGWYRQAPGKERELVAAISGGGGSTYYADSVKGRFTISRDNAKNTVYLQMNSLKPEDTAVYYCAKRPAYRGYGLGYYWGQGTQVTVSS
- polyreactivity (PSR sort gate): high polyreactivity

Sequence: QVQLVESGGGLVQAGGSLRLSCAASGRTFGLNAMGWYRQATGKERELVAAITSGGSTYYADSVKGRFTISRDNAKKTVYLQMNSLKPEDTAVYYCAVTYNGDSSWPGDYWGQGTQVTVSS
- polyreactivity (PSR sort gate): low polyreactivity

Sequence: QLQLVESGGGLVQAGGSLRLSCAASGVIFRAYAMGSSRQAPGQERELVAAISGRGGSTYYADSVKGRFTISRDNAKNTVYLQMNSLKPEDTAVYYCNVPLIHPGAPYEYWGQGTQVTVSS
- polyreactivity (PSR sort gate): high polyreactivity

Sequence: QVQLVESGGGLVQAGGSLRLSCAASGFILAYYEMGWYRQAPGKERELVAAISIGSSTDYADSVKGRFTISRDNAKNTVYLQMNSLKPEDTAVYYCAARDYYYEYDYWGQGTQVTVSS
- polyreactivity (PSR sort gate): low polyreactivity

Sequence: QVQLVESGGGLVQAGGSLRLSCAASGFTFDWYAMGWYTQAPGKERELVAAITTSGGTTYYADSVKGRFTISRDNSKNNVYLKMISLKPEDPAVYFCAADYYYWYPVEKYDYCGQGTQVTVSS
- polyreactivity (PSR sort gate): low polyreactivity

Sequence: QDQLVESGGGLVQAGGSLRLSCAASGRTLYYYTMGWYRQAPGKERELVAAITWSGGSTYADSVKGRFTISRDNAKNTVYLQMNSLKPEDTAVYYCAAVRTSRFDYWGQGTQVTVSS
- polyreactivity (PSR sort gate): high polyreactivity

Sequence: QVQLQESGGGLVRAGGSLRLSCAASGYISTSIAMGWYRQAPGKERELVASFGRGAITNYADSVKGFTISRDNGKNSVYLQMNSLKPEDTAVYYCAVYHGDRGYYSYWGQGTQVNVSS
- polyreactivity (PSR sort gate): low polyreactivity

Sequence: QVQLVESGGGLVQAGGSLRLSCAASGRIFVHYVMGWYRQAPGKERELVAAISRSGGRTYYADSVKGRFTISRDNAKNTVYLQMNSLKAEDTAVYYCATDASTYKYDYWGQGSQVTVSS
- polyreactivity (PSR sort gate): high polyreactivity

Sequence: QVQLVESGGGLVQAGGSLRLSCAASGSIFNVNAMGWYRQAPGKERELVAAISSGGDTYYADSVKGRFTISRDNAKNTVYLQMNSLKPEDTAVYYCAKQSYTLYTLLYDYWGQGTQVTVSS
- polyreactivity (PSR sort gate): low polyreactivity

Sequence: QVQLVESCGGLVQAGGSLRLSCAGSGSTFVYYAMGWSRQAPGQERELVAAISRSGGSTYYADSVKGRFTISRDNAKNTVYLQMHSLKPEDTAVYYCNKYAIFPAYRYPRSDYWGQGTQVTVSS
- polyreactivity (PSR sort gate): high polyreactivity

Sequence: QVQLVESGGGVVQAGGSLRLSCAAYGSIFEANDMGWYRQAPGKERELVAAIDANTGSTYYADSVKGRFTISLDNAKNTVYLQMNSLKPEVTAVYYCNAQVYLQTAYDYWGQGTQVSVSS
- polyreactivity (PSR sort gate): low polyreactivity

Sequence: QVQLVESGGGLVQAGGSLRLSCAASGRTFRYYAMGWYRQAPGKERELVAAISRGDSTHYADSVKGRFTISRDNAKNTVYLQMNSLKPEDTAVDYCAAYRGRSVDRQPYYCGQGTQVTVSS
- polyreactivity (PSR sort gate): high polyreactivity

Sequence: QVQLVESGGRLVQAGGSLRLSGAASGIIFRTNAMGWSRQAPGKEREFVAAISAGGTRTYYADSVKGRFTISRDYAKNTVYLQMNSLKPEDTAVYFCAAASGYDYWGQGTQVTVSS
- polyreactivity (PSR sort gate): high polyreactivity

Sequence: QVQHVESWRGLVQAGGSLRLSCAASGSTNYPNAMGWSRQAPGKERELVPAITSGGSTYYADSVKGRFTISRDNAKNTVYLPMNSLKPEDTAVYYCAAQRRYHQDTTIGPGNYYYWGQGTQVTVSS
- polyreactivity (PSR sort gate): low polyreactivity

Sequence: QVQLVESGGGLVQAGGSLRLSCAASGLIFFFYAMGWYRQAPGKERELVAAISSGGTTNYADSVKGRFTISRDNAKNTVYLQMNSLKPEDTAVYYCAARPSTYWSLGQHYGISGYWGQGTQVTVSS
- polyreactivity (PSR sort gate): low polyreactivity

Sequence: QVQLVESGGGLVQAGGSLRLSCAASGSTFSKNTMGWYRKAPGKERELVAAITSGGSTYYADSVKGRFTISRDNAKNTVYLQMNSLKPEDTAVYYCAAGYELYYYIYKMDYWGQGTQVTVSS
- polyreactivity (PSR sort gate): high polyreactivity

Sequence: QVQLVESGGGLVQAGGSLRLSCAASGFTFHDYAMGWYRPAPGKERELVAAITKTGGRTYYADSVKGRFTISRDNAKNTVYLQMNSLKPEVTAVYYCAAKSYWGQGTQVTVSS
- polyreactivity (PSR sort gate): high polyreactivity

Sequence: QVQLVESGGGLVQAGGSLRLSCAASGSTFDPYAMGWYRQAPGKEREFVAAISGSGGSTYYADSVKGRFTISRDNAKNTVYLQMNSLKPEDTAVYYCAKDSFPWVDDDYWGQGTQVTVSS
- polyreactivity (PSR sort gate): low polyreactivity

Sequence: QVQLVESGGGLVQAGGSLRLSCAASGFTFWYYAMGWYRQAPGKERELVAGIDSGGSTYYADSVKGRFTISRDNAKNTVYFQMNSLKPEETAVYYCAARPDQGLAYSPLPWYNYWGQGTQVTVSS
- polyreactivity (PSR sort gate): low polyreactivity

Sequence: QVQLVESGGGLVQAGGSLRLSCAASGRTFSVNAMGWYRQAPGKERELVAAISWDGGSTYYADSVKGRFTISRDNAKNTVYLQMNSLKPEDTAVYYCIKDLYYAYDYWGQGTQVNVSS
- polyreactivity (PSR sort gate): low polyreactivity

Sequence: QVQLVESGGGLVQAGGSLRLSCAASGFTFAVYAMGWYRQAPGKERELVAAITTSGTRTYYADSVKGRFTISRDNAKNTVYLQMNSLKPEDTAVYYCAAVGFRQWPEFDYWGQGTQVTVSS
- polyreactivity (PSR sort gate): low polyreactivity

Sequence: QVQLVESGGGLVQAGGSLRLSCAASGSIFIGYAMGWYRQAPGKERELVAAIDSNGDTTYYADSVKGRFTISRDNAKNTVYLQMNSLKPEDTAVYYCAVDPYHDQLVSDHYYWGQGTQVTVSS
- polyreactivity (PSR sort gate): low polyreactivity

Sequence: QVQLVESGGGLVQAGGSLRLSCAASGRIFTIYAMGWYRQAPGKERELVAAISDRGTRTYYADSVKGRFTISRDNAKNTVYLQMISLKPEVTAVYYCATDALYTYGYDYWGQGTQVTVSS
- polyreactivity (PSR sort gate): low polyreactivity

Sequence: QVQLVESGGGLVQAGGILRVSCAASGRIFRFYAMGWYRQAPGKERELVADISRRGGSTYYADSVKGRFTISRDNAKNTVYLQMNSLKPEDTAVYYCNARWYRTGSTYHDDYWGQGTQVTVSS
- polyreactivity (PSR sort gate): high polyreactivity

Sequence: QVQLVESGGGLFQAGGSLRLSCAASGFTFVDYAMAWYRQAPGKERELVAAITVSGDSTYYADSVKGRFTISRDNAKNTVYLQMNSLKRADTAFYYCAADPGYYYGGYWGQGTQVTVST
- polyreactivity (PSR sort gate): low polyreactivity

Sequence: QVQLVESGGRLVQARGSLRLSCAPSGSIFYSNAMGSYRQAPGKEREFVAGIRSGGITNYADSVKGRFTISRDNAKNTVYLQMTSLKPEDTAVYYCAKLKDHGRYAYAFDYWRQGTQVTVSS
- polyreactivity (PSR sort gate): low polyreactivity

Sequence: QVQLVESGGGLVQAGGSLRLSCAASGRIFRPYTMGWYRQAPGKEWELVAAISIGGRTYYADSVKGRFTISRDNAKNTVYLKMNSLKPEDTAVYYCAAVGGSDRRARPGRAVDYWGQGTQVTVSS
- polyreactivity (PSR sort gate): high polyreactivity

Sequence: QVQLVESGGGLVQAGGSLRLSCAASGRIFPGYAMGWYRQAPGKERELVASISRTGRTNYADSVKGRFTISRDNAKNTVYLQMNSLKPEDTAVYYCAAEYYHSSYGYGYWGQGTQVTVSS
- polyreactivity (PSR sort gate): low polyreactivity

Sequence: QVQLVESGGGLVQAGGSLRLSCAASGSIFPWYTMGWYRQAPGKERELVAAITSSGGGTYYADSVKGRFTISRDNAKNTVYLQINSLKPEDTAVYYCAAGLDWGPEYEYWGQGTQVTVSS
- polyreactivity (PSR sort gate): low polyreactivity

Sequence: QVQLVESGGGLVQAGGSLRLSCAASGSTFGINAMGWYRQSPGKERELVAAISSRGGRTYYADSVKGRFTISRDNAKNTVYLQMNSLKPEDTAVYYCNAVYGRVKGRGVGFKPQYDSWGQGTQVTVSS
- polyreactivity (PSR sort gate): high polyreactivity

Sequence: QVQLVESGGGLVQAGGSLRLSCAASGFTFGYYAMGWYRQAPGKERELVASISSRGGSTNYADSVKGRFTISRDNAKNTVYLQMNSLKPEDTAVYYCNADYYYPLRSNKYYYWGQGTQVTVSS
- polyreactivity (PSR sort gate): high polyreactivity

Sequence: QVQLVESGGGLVQAGGSLRLSCAASGITLTIYTMGWYRQAPGKERELVAAINWSGTRTYYADSVKGRFTISRDNAKNTVYFQMNSLKPEDTAVYYCAATTYRYPNILGYDYWGQGTQVSVSS
- polyreactivity (PSR sort gate): high polyreactivity

Sequence: QVQLVESGGGLVQAGGSLRLSCAASGSIFSYYAMGWYRQAPGKERELVADITANDGSTYYADSVKGRFTISRDNAKNTVYLQMNSLKPEDTAVYYCAAEYYYPIWGPYDYWGQGTQVTVSS
- polyreactivity (PSR sort gate): high polyreactivity

Sequence: QVQLVESGGGLVQAGGSLRLICAASGSIFARYAMGWYRQAPGKERELVAAITGRGGSTYYADSVKGRFTISRDNAKNTVYLQMNSLKPEDTAVYYCNAVGHTSIRRALDILDYWGQGTQVTVSS
- polyreactivity (PSR sort gate): high polyreactivity

Sequence: QVQLVESGGGLVQAGGSLRLSCAASGSIFTYNTMGWYRPAPGKERELVAAISSGGRTYYADSVKGRFTISRDNAKNTVYLQMTSLKPEDTAVYYCAARYYFWGQGTQVTVSS
- polyreactivity (PSR sort gate): high polyreactivity

Sequence: QVQLVESGGGLVQAGGSLRLSCAASGSIFATNAMGWYRQAPGKERELVATITNSGASTSYADSVKGRFTISRDNAKNTVYLQMNSLKPEDTAVYYCNAYGYRAYGVRGYTYGYDYWGQGTQVTVSS
- polyreactivity (PSR sort gate): low polyreactivity

Sequence: QLQLVESGGGLVQAGGSLRLSCAASGSTFYAYAMGWNRPAPGKERELVAAISRGGNTYYADSVQGRFTISRDNAKNTVYLQMNSRKPEDTAVYYCAARYARGRSPLQYGYWGQGTQVTVSS
- polyreactivity (PSR sort gate): high polyreactivity

Sequence: QVQLVESGGGLVQAGGSLRLSCAASGITFSRKVMGWFRQAPGKERELVAAISRSGGRTYYADSVKGRFTISRDTAKNTVYLQMNSLKPEDTAVYYCNRDIGGTSVLDDYWGQGTQVTVSS
- polyreactivity (PSR sort gate): low polyreactivity

Sequence: QVQLQESGGGLVQGGGSLRLSCAASGSNYRSWYMGWYRQAPGKERELVASITEGATTNYAYSVKAALPLAAITRNTVYLQMDSMKPEDTAVYYRAASFGSTYDLVYWGQGTQVTVSS
- polyreactivity (PSR sort gate): high polyreactivity

Sequence: QVQLVESGGCLVQAGGSLRLSCAASGLIFGDYAMGWYRPAPGKESELVAAITGSFTRTYYADSVKGSFTISRDNAKNTVYLQMNSLKPEDTAVYYCAADWYKRPPYVYWGQGTQVTLSS
- polyreactivity (PSR sort gate): low polyreactivity

Sequence: QVQLVESGGGLVQAGGSLRLSCAASGFTFVSYTMGWYRQAPGKERELVAVITKRGGSTYYADSVKGRFTISRDNAKNTVYLQLNCLKPEDTAVYYCNAVQAYKSPSLPLAGGNYWGQGTQVTVSS
- polyreactivity (PSR sort gate): high polyreactivity

Sequence: QVQLVESGGGLVQAGGSLRLSCAASGFIFGVYAMGWYRQAPGKERELVAAITSTGSTYYADSVKGRFTISRDNAKNTVYLQMNSLKPEDTAVYYCATYYWLGLSLYDYWGQGTQVTVSS
- polyreactivity (PSR sort gate): low polyreactivity

Reference: the nanobody polyreactivity screen of Harvey et al. (2022)
